Experimental data: patent publication US8420776B2, “Ube2G2 binding domain in the ubiquitin ligase gp78 and methods of use thereof” (The United States of America, as Represented by the …, priority 2004, dated 2013)

Legend:
[1] = biological target: T1, His6-Ube2G2 (Mus musculus, UniProt P60605); assay: Direct binding of bacterially expressed His6-Ube2G2 to GST fusions; details: purified E2, anti-His6 immunoblot
T1 construct: made in house; host or cells: bacteria (pExp17, Gateway)
T1 sequence (P60605 1-165): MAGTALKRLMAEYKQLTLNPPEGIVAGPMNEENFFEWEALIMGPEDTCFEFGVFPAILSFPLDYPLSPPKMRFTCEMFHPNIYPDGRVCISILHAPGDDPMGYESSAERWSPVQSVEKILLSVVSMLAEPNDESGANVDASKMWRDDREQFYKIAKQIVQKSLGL
Description: (§1) GST fusions were purified from E. Coli. Binding was carried out using equi-molar amount of fusion proteins measured by Commassie blue staining. Generally, 20 picomoles/sample were used. In vitro translated E2 was generated by coupled transcription and translation using 35S methionine in either wheat germ or rabbit reticulocyte lysate. Binding assays using in vitro translated E2 was carried out by incubating GST protein pre-bound to Glutathione-sepharose 4B with […] of ^35S-methionine labeled E2 in binding buffer (25 mM Tris-HCl, pH 7.4; 50 mM NaCl, 5 mM DTT; and 0.5% NP-40) overnight at 4° C. Beads were washed with binding buffer and resolved by SDS-PAGE under reducing conditions. Analysis was by Storm PhosphoImager (Applied Biosystems, Foster City, Calif.). Direct binding assays used wild type His6-MmUbc7 (His6-Ube2G2) and Glutathione-sepharose bound GST fusions. Beadbound GST protein was incubated with 100 ng purified His6-MmUbc7 in binding buffer and washed and eluted as above. After transfer to Hybond-P (Amersham Biosciences) binding was assessed with anti-His6 followed by Enhanced Chemiluminescence ECL; Pierce). Ubiquitin binding studies were performed with binding and washing as above using 1 μg K48 tetra-ubiquitin produced as described (Piotrowski et al., 1997). Detection was by anti-ubiquitin immunoblotting.

[2] = biological target: T2, Ube2G2/MmUbc7 (Mus musculus, UniProt P60605); assay: GST pull-down binding of in vitro translated 35S-Met Ube2G2/MmUbc7; set-up: species or system human; details: GST fusion pull-down; 35S-Met labeled E2
T2 construct: made in house; host or cells: coupled in vitro transcription/translation in rabbit reticulocyte lysate or wheat germ
T2 sequence (P60605 1-165): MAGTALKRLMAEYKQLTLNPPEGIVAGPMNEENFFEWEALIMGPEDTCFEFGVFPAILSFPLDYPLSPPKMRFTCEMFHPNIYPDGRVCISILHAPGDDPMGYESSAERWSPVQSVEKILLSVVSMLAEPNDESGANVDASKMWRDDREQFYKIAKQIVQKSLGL
Description: GST fusions were purified from E. Coli. Binding was carried out using equi-molar amount of fusion proteins measured by Commassie blue staining. Generally, 20 picomoles/sample were used. In vitro translated E2 was generated by coupled transcription and translation using 35S methionine in either wheat germ or rabbit reticulocyte lysate. […] Beads were washed with binding buffer and resolved by SDS-PAGE under reducing conditions. Analysis was by Storm PhosphoImager (Applied Biosystems, Foster City, Calif.). Direct binding assays used wild type His6-MmUbc7 (His6-Ube2G2) and Glutathione-sepharose bound GST fusions. Beadbound GST protein was incubated with 100 ng purified His6-MmUbc7 in binding buffer and washed and eluted as above. After transfer to Hybond-P (Amersham Biosciences) binding was assessed with anti-His6 followed by Enhanced Chemiluminescence ECL; Pierce).
The E2 enzymes were in vitro translated using wheat germ.
GST fusion proteins encoding the regions indicated in FIGS. 3A-3C were evaluated for the ability to bind to Ube2G2/MmUbc7 that had been in vitro transcribed and translated in rabbit reticulocyte lysate. gp78C represents the entire C-terminal cytoplasmic domain of gp78 (amino acid residues 309-643 of SEQ ID NO:2).

[3] = test system: ERAD substrate CD3-δ; assay: Cycloheximide chase of CD3-δ in co-transfected cells; type: cell-based; details: co-transfection with HA-CD3-δ
Description: (§2) Transfections of HT1080, NIH 3T3 and HEK 293T cells were carried out ˜24 hr after plating using Polyfect (Qiagen, Valencia, Calif.) and cells harvested after ˜48 hr. J558 cells were transfected by electroporation using Bio-rad GENE pulser II at settings of 250 v, 950uF. Vector without insert was used to equalize total plasmid. In most experiments 0.15 μg of pEGFP-C1 served as an internal control. For experiments not involving immunoprecipitation, 6×10^5 cells were plated in 6 well plates and cell lysis was with Mammalian Protein Extraction Reagent (Pierce). For immunoprecipitation, 2.4×10^6 cells were seeded in 100 mm dishes and cells were lysed in RIPA buffer (1×PBS, 1% Nonidet P40. 0.5% sodium deoxycholate, 0.1% SDS). Lysis buffers were supplemented with Protease Inhibitor Cocktail (Sigma) and 10 mM iodoacetamide. Supernatants were analyzed after a 10,000×g centrifugation using standard techniques for immunoprecipitation, SDS-PAGE, immunoblotting and ECL. Treatment of cells with MG132 (Sigma) was at 50 μM for eight hr. Cycloheximnide was used at 50 μg/ml. All cells were collected at the end of the six hr chase.
(§3) To evaluate protein turnover in more detail, cycloheximide chase experiments were performed (FIGS. 20C and 20D). […] In agreement with FIG. 20A, CD3-δ degradation was accelerated with wild type gp78 (FIGS. 20C and 20D middle panels; effects of full-length forms of gp78 on CD3-δ from FIGS. 20C and 20D are quantified in FIG. 20E).

[4] = biological target: T3, endogenous Ube2G2 (Homo sapiens, UniProt P60604); assay: Co-immunoprecipitation of endogenous Ube2G2 with GFP fusions in HEK 293T cells; type: cell-based; details: anti-GFP IP
T3 construct: endogenous in cells; host or cells: HEK 293T
T3 sequence (P60604 1-165): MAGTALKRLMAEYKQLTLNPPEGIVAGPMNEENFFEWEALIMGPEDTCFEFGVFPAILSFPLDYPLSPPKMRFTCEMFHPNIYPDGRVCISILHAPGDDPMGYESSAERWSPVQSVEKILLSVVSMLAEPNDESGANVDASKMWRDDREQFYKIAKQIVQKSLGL
Description: Transfections of HT1080, NIH 3T3 and HEK 293T cells were carried out ˜24 hr after plating using Polyfect (Qiagen, Valencia, Calif.) and cells harvested after ˜48 hr. J558 cells were transfected by electroporation using Bio-rad GENE pulser II at settings of 250 v, 950uF. Vector without insert was used to equalize total plasmid. In most experiments 0.15 μg of pEGFP-C1 served as an internal control. For experiments not involving immunoprecipitation, 6×10^5 cells were plated in 6 well plates and cell lysis was with Mammalian Protein Extraction Reagent (Pierce). […] Supernatants were analyzed after a 10,000×g centrifugation using standard techniques for immunoprecipitation, SDS-PAGE, immunoblotting and ECL. […]
FIG. 6 depicts the specific binding of gp78 residues 574-611 (of SEQ ID NO:2) to endogenous Ube2G2 in HEK 293T cells. Cells were transfected with plasmids encoding GFP fusions of the indicated regions of gp78, and co-immunoprecipitation was evaluated. […]
To determine the specificity of E2 binding in cells, GFP fusions encompassing the E2 binding region were expressed in cells, and co-immunoprecipitation of endogenous E2 was tested using antibodies raised specifically against Ube2g1, Ube2G2 and UbcH5B (FIG. 19B). […] In contrast, and consistent with the in vitro binding data in FIG. 18, no association with endogenous UbcH5B or Ube2g1 was detected (FIG. 19B third and fourth panels, left). […]

[5] = test system: gp78; assay: Cycloheximide chase of gp78 in transfected cells; type: cell-based; details: compared to wild type gp78
Description: as §2, §3

[6] = biological target: T4, lysine 48-linked (K48) tetra-ubiquitin (Homo sapiens, UniProt P0CG47); assay: Tetra-ubiquitin binding to GST fusions; details: anti-ubiquitin immunoblot
T4 construct: 1 μg K48 tetra-ubiquitin produced as described (Piotrowski et al., 1997); made in house
Description: as §1

[7] = biological target: T5, Ube2G1 (Rattus norvegicus, UniProt P62255); assay: GST pull-down binding of in vitro translated Ube2G1; details: GST fusion pull-down
T5 construct: made in house; host or cells: in vitro translation in wheat germ (similar results in reticulocyte lysate)
T5 sequence (P62255 1-170): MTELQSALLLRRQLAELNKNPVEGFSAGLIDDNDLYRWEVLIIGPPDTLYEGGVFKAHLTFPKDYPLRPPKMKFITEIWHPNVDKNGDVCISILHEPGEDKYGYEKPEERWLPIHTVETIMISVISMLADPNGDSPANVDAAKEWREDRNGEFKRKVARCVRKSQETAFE
Text: Plasmids encoding the following have been described: rat Ubc7 (Ube2g1) (Lin and Wing, 1999); UbcH5B (Jensen et al., 1995); Myc-MmUbc7, C89S Myc-MmUbc7, HA-CD3-δ and 2B4 TCR-α (Tiwari and Weissman, 2001); GST-gp78 309 to 643, 508 or 428 and full length gp78 and the double RING finger mutation gp78Rf-m in pCINeo (Fang et al., 2001); and GST-UBA-Cbl-b (Davies et al., 2004). Plasmids encoding Ubc7p and His6-MmUbc7 were generated by PCR and subcloned into pCDNA-DEST47 or pExp17 respectively using Gateway (Invitrogen, Carlsbad, Calif.). GST-AO7 (92 to 259) was subcloned from full length A07 (Lorick et al., 1999). GST-gp78 beginning at 429, 503, 522, 542, 561, 574, 587, or 596 and ending at 643 GST-gp78 beginning at 435 and ending at 507 and GST-Cue1p 24-203 (Cue1pC) were generated by PCR and cloning into pGEX4T-1 (Amersham Biosciences, Piscataway, N.J.). N-terminal Flag-tagged constructs were created by PCR and cloning into pFlag-CMV6 (Sigma). N-terminal GFP-tagged constructs were generated by subcloning from pFLAG-CMV6 to pEGFP-C1 (BD Biosciences, Palo Alto, Calif.). […]
GST fusions were purified from E. Coli. Binding was carried out using equi-molar amount of fusion proteins measured by Commassie blue staining. […] After transfer to Hybond-P (Amersham Biosciences) binding was assessed with anti-His6 followed by Enhanced Chemiluminescence ECL; Pierce). […]

[8] = biological target: T6, UbcH5B (Homo sapiens, UniProt P62837); assay: GST pull-down binding of in vitro translated UbcH5B; details: GST fusion pull-down
T6 construct: made in house; host or cells: in vitro translation in wheat germ
T6 sequence (P62837 whole entry, the tested form may be a part): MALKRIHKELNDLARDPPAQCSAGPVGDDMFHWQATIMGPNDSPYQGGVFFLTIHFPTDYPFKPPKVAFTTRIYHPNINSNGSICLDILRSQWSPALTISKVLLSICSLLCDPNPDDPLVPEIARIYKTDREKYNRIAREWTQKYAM
Description: as §1, with “immunoblotting. […]” for “immunoblotting.”

[9] = biological target: T7, Ubc7p (Saccharomyces cerevisiae, UniProt Q02159); assay: GST pull-down binding of in vitro translated Ubc7p; set-up: species or system yeast; details: GST fusion pull-down
T7 construct: made in house; host or cells: in vitro translation in wheat germ from pCDNA-DEST47
T7 sequence (Q02159 1-165): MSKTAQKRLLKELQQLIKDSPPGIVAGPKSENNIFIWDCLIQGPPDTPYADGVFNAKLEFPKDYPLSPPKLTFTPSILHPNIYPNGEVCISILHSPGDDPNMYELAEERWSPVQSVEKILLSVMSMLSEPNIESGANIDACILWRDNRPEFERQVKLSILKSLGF
Description: as §1, with “immunoblotting. […]” for “immunoblotting.”

B1: E2-m2: GST-gp78 fusion with residues 579-584 (QRMLVQ) mutated to AAAGGG; in b274 the same mutation in a GFP fusion (protein)
chain: MPLLFLERFPWPSLRTYTGLSGLALLGTIISAYRALSQPEAGPGEPDQLTASLQPEPPAPARPSAGGPRARDVAQYLLSDSLFVWVLVNTACCVLMLVAKLIQCIVFGPLRVSERQHLKDKFWNFIFYKFIFIFGVLNVQTVEEVVMWCLWFAGLVFLHLMVQLCKDRFEYLSFSPTTPMSSHGRVLSLLVAMLLSCCGLAAVCSITGYTHGMHTLAFMAAESLLVTVRTAHVILRYVIHLWDLNHEGTWEGKGTYVYYTDFVMELTLLSLDLMHHIHMLLFGNIWLSMASLVIFMQLRYLFHEVQRRIRRHKNYLRVVGNMEARFAVATPEELAVNNDDCAICWDSMQAARKLPCGHLFHNSCLRSWLEQDTSCPTCRMSLNIADNNRVREEHQGENLDENLVPVAAAEGRPRLNQHNHFFHFDGSRIASWLPSFSVEVMHTTNILGITQASNSQLNAMAHQIQEMFPQVPYHLVLQDLQLTRSVEITTDNILEGRIQVPFPTQRSDSIRPALNSPVERPSSDQEEGETSAQTERVPLDLSPRLEETLDFGEVEVEPSEVEDFEARGSRFSKSADERAAAGGGRKDELLQQARKRFLNKSSEDDAASESFLPLEGASSDPVTLRRRMLAAAAERRLQKQQTS
- direct binding of His6-Ube2G2 [1]: disrupted binding
- binding to in vitro translated Ube2G2/MmUbc7 [2]: loss of binding
- effect on CD3-δ degradation [3]: minimal stabilization of CD3-δ
- co-immunoprecipitation of endogenous Ube2G2 [4]: abrogated binding
- gp78 stability [5]: stabilized gp78

B2: Cue1pC: GST fusion of the cytoplasmic domain of yeast Cue1p (protein)
chain: QSNQHPSAQRLSATGVNAHGRPQGSTQNALRRTGRVNGGHPVTTQMVETVQNLAPNLHPEQIRYSLENTGSVEETVERYLRGDEFSFPPGFEPSRAPMGANAAVDNNAAGGGEFNDPRKKNMICAENLLDKFHVDLNEDMSNLSFKDLDIEERKRLLVWQARKNLETKLQSDKDLQSLLT
modifications: left off: a dimerising Fc or GST
notes: GST fusion of the cytoplasmic domain of yeast Cue1p
- binding of K48 tetra-ubiquitin [6]: no binding
- binding to in vitro translated Ube2G2/MmUbc7 [2]: bound
- binding to in vitro translated Ube2G1 [7]: no binding
- binding to in vitro translated UbcH5B [8]: bound to neither
- binding to in vitro translated yeast Ubc7p [9]: bound
